# Results published in publication PMC3105425.
# Biological target: truncated form of ribosomal protein L2 (E. coli) (UniProt P60422)
# Experiment: ELISA
# Chain of DnaAΔ129 lacking the N-terminal 129 residues (P03004 130-467, stated change not applied): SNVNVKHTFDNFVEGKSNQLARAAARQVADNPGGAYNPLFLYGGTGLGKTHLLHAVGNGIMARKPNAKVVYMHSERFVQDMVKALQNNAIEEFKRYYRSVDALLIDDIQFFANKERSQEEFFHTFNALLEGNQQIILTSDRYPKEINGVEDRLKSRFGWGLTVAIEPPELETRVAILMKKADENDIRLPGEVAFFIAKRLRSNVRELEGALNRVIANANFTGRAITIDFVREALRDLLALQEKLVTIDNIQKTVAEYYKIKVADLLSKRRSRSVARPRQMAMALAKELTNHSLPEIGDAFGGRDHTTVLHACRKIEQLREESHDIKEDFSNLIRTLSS
substance,measurement,value
DnaAΔ129 lacking the N-terminal 129 residues (from UniProt P03004 130-467) (domain or fragment),fold reduction of the interaction against wild-type DnaA,4 fold
